Experimental data published in the supplement of paper PMC10567573.

B1: STX5 (parent)
chain: ESTIVELGSIFQQLAHMVKEQEET

Variants of: B1
Test: protein stability index of a GFP-peptide fusion (GPS, HEK-293T) (PSI 1-6); higher = more stable
Conditions: c terminus: a fixed tail appended
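Note: lentivirally expressed fusions sorted by FACS into six bins by GFP to DsRed ratio, PSI derived from sequencing read proportions per bin multiplied by bin number.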

Point of comparison: ESTIVELGSIFQILAHMVKEQEET [Q13I], protein stability index 1.44. Against it:
- ESTISELGSIFQQLAHMVKEQEET [V5S] — higher, 2.46
- ESTIEELGSIFQQLAHMVKEQEET [V5E] — higher, 2.12
- ESTIQELGSIFQQLAHMVKEQEET [V5Q] — higher, 2.07
- ESTIRELGSIFQQLAHMVKEQEET [V5R] — higher, 2.88
- ESTIIELGSIFQQLAHMVKEQEET [V5I] — higher, 2.55
- ESTIWELGSIFQQLAHMVKEQEET [V5W] — higher, 2.22
- ESTIAELGSIFQQLAHMVKEQEET [V5A] — higher, 2.28
- ESTIHELGSIFQQLAHMVKEQEET [V5H] — higher, 1.71
- ESTIGELGSIFQQLAHMVKEQEET [V5G] — higher, 2.79
- ESTIYELGSIFQQLAHMVKEQEET [V5Y] — higher, 2.28
- ESTIFELGSIFQQLAHMVKEQEET [V5F] — higher, 1.83
- ESTIPELGSIFQQLAHMVKEQEET [V5P] — higher, 3.5
- ESTINELGSIFQQLAHMVKEQEET [V5N] — higher, 2.04
- ESTITELGSIFQQLAHMVKEQEET [V5T] — higher, 1.99
- ESTIKELGSIFQQLAHMVKEQEET [V5K] — higher, 3.1
- ESTILELGSIFQQLAHMVKEQEET [V5L] — higher, 2.04
- ESTICELGSIFQQLAHMVKEQEET [V5C] — higher, 2.58
- ESTIDELGSIFQQLAHMVKEQEET [V5D] — higher, 3
- ESTIMELGSIFQQLAHMVKEQEET [V5M] — higher, 2.56
- ESTIVELGSITQQLAHMVKEQEET [F11T] — higher, 4.81
- ESTIVELGSIIQQLAHMVKEQEET [F11I] — higher, 2.27
- ESTIVELGSISQQLAHMVKEQEET [F11S] — higher, 4.27
- ESTIVELGSILQQLAHMVKEQEET [F11L] — higher, 2.8
- ESTIVELGSICQQLAHMVKEQEET [F11C] — higher, 3.62
- ESTIVELGSINQQLAHMVKEQEET [F11N] — higher, 5.61
- ESTIVELGSIQQQLAHMVKEQEET [F11Q] — higher, 3.48
- ESTIVELGSIPQQLAHMVKEQEET [F11P] — higher, 4.65
- ESTIVELGSIKQQLAHMVKEQEET [F11K] — higher, 4.85
- ESTIVELGSIWQQLAHMVKEQEET [F11W] — higher, 2.83
- ESTIVELGSIGQQLAHMVKEQEET [F11G] — higher, 5.35
- ESTIVELGSIHQQLAHMVKEQEET [F11H] — higher, 5.76
- ESTIVELGSIMQQLAHMVKEQEET [F11M] — higher, 2.98
- ESTIVELGSIDQQLAHMVKEQEET [F11D] — higher, 5.77
- ESTIVELGSIRQQLAHMVKEQEET [F11R] — higher, 4.92
- ESTIVELGSIAQQLAHMVKEQEET [F11A] — higher, 3.83
- ESTIVELGSIYQQLAHMVKEQEET [F11Y] — higher, 3.19
- ESTIVELGSIVQQLAHMVKEQEET [F11V] — higher, 3.19
- ESEIVELGSIFQQLAHMVKEQEET [T3E] — lower, 1.43
- ESWIVELGSIFQQLAHMVKEQEET [T3W] — lower, 1.24
- ESQIVELGSIFQQLAHMVKEQEET [T3Q] — higher, 3.88
- ESSIVELGSIFQQLAHMVKEQEET [T3S] — higher, 2.72
- ESFIVELGSIFQQLAHMVKEQEET [T3F] — lower, 1.3
- ESKIVELGSIFQQLAHMVKEQEET [T3K] — higher, 2.83
- ESLIVELGSIFQQLAHMVKEQEET [T3L] — higher, 1.85
- ESNIVELGSIFQQLAHMVKEQEET [T3N] — higher, 2.31
- ESRIVELGSIFQQLAHMVKEQEET [T3R] — higher, 3.19
- ESIIVELGSIFQQLAHMVKEQEET [T3I] — higher, 2.94
- ESPIVELGSIFQQLAHMVKEQEET [T3P] — higher, 3.03
- ESMIVELGSIFQQLAHMVKEQEET [T3M] — the same, 1.44
- ESYIVELGSIFQQLAHMVKEQEET [T3Y] — higher, 2.05
- ESHIVELGSIFQQLAHMVKEQEET [T3H] — higher, 2.4
- ESVIVELGSIFQQLAHMVKEQEET [T3V] — higher, 2.56
- ESTIVELGSIFTQLAHMVKEQEET [Q12T] — higher, 1.93
- ESTIVELGSIFHQLAHMVKEQEET [Q12H] — higher, 3.15
- ESTIVELGSIFPQLAHMVKEQEET [Q12P] — higher, 4.39
- ESTIVELGSIFNQLAHMVKEQEET [Q12N] — higher, 2.99
- ESTIVELGSIFVQLAHMVKEQEET [Q12V] — higher, 2.07
- ESTIVELGSIFMQLAHMVKEQEET [Q12M] — higher, 1.98
- ESTIVELGSIFLQLAHMVKEQEET [Q12L] — higher, 3.46
- ESTIVELGSIFYQLAHMVKEQEET [Q12Y] — higher, 2.17
- ESTIVELGSIFRQLAHMVKEQEET [Q12R] — higher, 2.4
- ESTIVELGSIFIQLAHMVKEQEET [Q12I] — higher, 2.26
- ESTIVELGSIFSQLAHMVKEQEET [Q12S] — higher, 2.1
- ESTIVELGSIFKQLAHMVKEQEET [Q12K] — higher, 1.79
- ESTIVELGSIFAQLAHMVKEQEET [Q12A] — higher, 1.98
- ESTIVELGSIFDQLAHMVKEQEET [Q12D] — higher, 3.34
- ESTIVELGSIFCQLAHMVKEQEET [Q12C] — higher, 1.7
- ESTIVELGSIFWQLAHMVKEQEET [Q12W] — lower, 1.32
- ESTIVELGSIFFQLAHMVKEQEET [Q12F] — higher, 2.26
- ESTIVELGSIFQHLAHMVKEQEET [Q13H] — higher, 2.43
- ESTIVELGSIFQFLAHMVKEQEET [Q13F] — higher, 1.57
- ESTIVELGSIFQMLAHMVKEQEET [Q13M] — higher, 1.98
- ESTIVELGSIFQLLAHMVKEQEET [Q13L] — higher, 1.54
- ESTIVELGSIFQELAHMVKEQEET [Q13E] — higher, 2.57
- ESTIVELGSIFQGLAHMVKEQEET [Q13G] — higher, 4.12
- ESTIVELGSIFQSLAHMVKEQEET [Q13S] — higher, 2.95
- ESTIVELGSIFQPLAHMVKEQEET [Q13P] — higher, 4.54
- ESTIVELGSIFQTLAHMVKEQEET [Q13T] — higher, 3.28
- ESTIVELGSIFQKLAHMVKEQEET [Q13K] — higher, 2.8
- ESTIVELGSIFQCLAHMVKEQEET [Q13C] — higher, 2.32
- ESTIVELGSIFQNLAHMVKEQEET [Q13N] — higher, 2.23
- ESTIVELGSIFQALAHMVKEQEET [Q13A] — higher, 2.4
- ESTIVELNSIFQQLAHMVKEQEET [G8N] — higher, 2.44
- ESTIVELKSIFQQLAHMVKEQEET [G8K] — higher, 1.94
- ESTIVELYSIFQQLAHMVKEQEET [G8Y] — higher, 3.89
- ESTIVELASIFQQLAHMVKEQEET [G8A] — higher, 2.47
- ESTIVELFSIFQQLAHMVKEQEET [G8F] — higher, 2.06
- ESTIVELHSIFQQLAHMVKEQEET [G8H] — higher, 2.48
- ESTIVELDSIFQQLAHMVKEQEET [G8D] — higher, 2.28
- ESTIVELMSIFQQLAHMVKEQEET [G8M] — lower, 1.35
- ESTIVELLSIFQQLAHMVKEQEET [G8L] — higher, 1.85
- ESTIVELISIFQQLAHMVKEQEET [G8I] — higher, 2.24
- ESTIVELTSIFQQLAHMVKEQEET [G8T] — higher, 2.69
